# Measurements reported in the RNAGym collection of RNA variant scans (doi:10.7554/elife.80360).
# B1: HDV Ribozyme (parent)
# chain: GGCCGGCAUGGUCCCAGCCUCCUCGCUGGCGCCGGCUGGGCAACAUUCCGAGGGGACCGUCCCCUCGGUAAUGGCGAAUGGGACCCA
# Variants of: B1
# Experiment: self-cleavage, relative activity (ratio to wild type); higher = more cleavage; co-transcriptional
row,Variant,self-cleavage
1,C26A G82C,0.342
2,C26A G82U,0.317
3,G25C U60A,0.256
4,G25U U37C,0.17
5,G25U U37G,0.0489
6,C26U A83C,0.95
7,G25U G38U,0.134
8,G25U G38C,0.0554
9,G25U A43G,0.0573
10,G25U A43C,0.147
11,G25U A43U,0.0707
12,G25U C84G,0.17
13,G25U C84A,0.222
14,G25U C84U,0.262
15,C26A U65A,0.966
16,G25C G67A,0.123
17,G25C G67U,0
18,G25C G67C,0.0415
19,G25C G80C,0.17
20,C26A G35A,0.633
21,C26G G34U,0.525
22,G25C G76A,0.0875
23,G25C G76C,0.0723
24,G25C G76U,0.0852

row,Variant,self-cleavage
1,C26A G38A,0.153
2,C26A G38C,0.122
3,C26G C75G,0.227
4,C26G C75U,0.262
5,C26A C75A,0.0415
6,G25U A71U,0.0396
7,G25U A71C,0.213
8,G25U C57U,0.227
9,G25U C33G,0.119
10,G25C G59U,0.116
11,G25C G59C,0.131
12,G25C G59A,0.0791
13,C26G A71G,0.475
14,C26G A71U,0.612
15,C26G A71C,0.85
16,C26G G55U,0.975
17,C26G U60C,1.31
18,C26G U60A,1.05
19,C26A C64A,1.02
20,C26A C64U,1.13
21,C26G G82C,0.499
22,G25U A51C,0.135
23,G25U A51G,0.266
24,C26A A77C,0.266

row,Variant,self-cleavage
1,C26A A77U,0.597
2,C26U C33A,0.307
3,G25U G29C,0.106
4,C26U A78U,0.743
5,C26U A78G,1.07
6,C26A U46G,0.86
7,C26A U46A,0.77
8,G25U U47A,0.161
9,G25U U47C,0
10,C26U C57U,1.05
11,C26A U27A,0.749
12,G25U C62G,0.253
13,G25C G68C,0.0639
14,G25U A70G,0.0875
15,G25U A70U,0.0852
16,C26G A70G,0.665
17,G25U C32G,0.0222
18,G25U C32U,0.161
19,G25U C32A,0.105
20,G25U U46C,0
21,G25U U46A,0.0852
22,G25U U46G,0.199
23,C26A C86U,0.735
24,C26A C86A,1.13

row,Variant,self-cleavage
1,C26A C86G,0.888
2,C26A C48U,0.941
3,G25U A77G,0.145
4,C26G C44A,0.554
5,C26G C44G,0.554
6,G25U C44G,0.249
7,C26G A43C,0.437
8,C26G A43U,0.584
9,C26G C57G,1.04
10,G25C U65C,0.0536
11,C26A G67A,1.01
12,C26A C62A,1.15
13,G25U G74C,0.0308
14,G25U G74U,0.0268
15,G25U G74A,0.0707
16,G25U U79G,0.0426
17,G25U A42C,0.135
18,G25U A42U,0.173
19,C26A C32U,0.816
20,C26A C32A,0.216
21,C26G A42U,0.449
22,C26U C36G,0.162
23,C26U C36A,0
24,C26A C49A,1.11

row,Variant,self-cleavage
1,G25C U69A,0.166
2,G25C U69G,0
3,G25U C48G,0
4,C26G G67A,0.696
5,G25U C36G,0.108
6,G25U C36A,0.106
7,C26G C66G,1.1
8,C26G C66U,1.16
9,C26A G40C,0.601
10,G25C G81A,0
11,G25U G82C,0.0755
12,G25U G82A,0.0678
13,C26A C57A,1.02
14,C26A C57G,1.1
15,C26G C32A,0.326
16,C26G C32U,0.743
17,C26G C32G,0.203
18,C26A G68A,1.08
19,C26G G38U,0.435
20,C26G G38C,0.151
21,G25U G54A,0.086
22,C26G U27A,0.516
23,C26G U27C,0.795
24,C26G U27G,0.208

row,Variant,self-cleavage
1,G25C U46G,0
2,G25C U46C,0.0875
3,G25C U79A,0.0615
4,G25C U79C,0.0923
5,G25C U79G,0.0594
6,G25U A56U,0.249
7,G25U A56C,0.122
8,G25U A56G,0.0554
9,C26A G76A,1.03
10,C26A G76U,1.05
11,C26A G76C,1.08
12,C26G G53A,1.02
13,C26A C84A,0.787
14,C26A C84U,0.854
15,C26A C84G,0.95
16,G25U U27C,0.107
17,G25C G73C,0.0773
18,G25C G73U,0.185
19,C26G C86G,0.886
20,C26G C86U,0.831
21,C26A C63U,0.869
22,C26A C63A,0.724
23,C26A U47C,0.646
24,C26G G35U,0.499

row,Variant,self-cleavage
1,C26G G35A,0.326
2,C26U A70C,1.08
3,C26A G59C,0.944
4,C26A G59U,1.12
5,C26A C33U,0.796
6,C26A C33G,0.317
7,C26A C33A,0.161
8,C26U A51G,0.95
9,G25U G81C,0.0923
10,G25U G81A,0.124
11,C26A G34C,0.111
12,C26A G34U,0.683
13,G25C U72C,0.123
14,G25C U72A,0.0791
15,C26A G50C,1.16
16,C26A G50U,0.958
17,C26U A43U,0.708
18,C26U A43G,0.745
19,G25U G50U,0.0361
20,G25U G53U,0.145
21,C26A A43U,0.527
22,C26U C32U,0.799
23,C26U C32A,0.256
